Data published in publication PMC2064081.

Target: MIM/IMD-L (IRSp53/MIM domain of mouse missing-in-metastasis, longer splice variant) (mouse) (UniProt Q8R1S4)
Test: SPR

MIM/IMD-L (IRSp53/MIM domain of mouse missing-in-metastasis, longer splice variant) (mouse), sequence (Q8R1S4 1-250, change not shown): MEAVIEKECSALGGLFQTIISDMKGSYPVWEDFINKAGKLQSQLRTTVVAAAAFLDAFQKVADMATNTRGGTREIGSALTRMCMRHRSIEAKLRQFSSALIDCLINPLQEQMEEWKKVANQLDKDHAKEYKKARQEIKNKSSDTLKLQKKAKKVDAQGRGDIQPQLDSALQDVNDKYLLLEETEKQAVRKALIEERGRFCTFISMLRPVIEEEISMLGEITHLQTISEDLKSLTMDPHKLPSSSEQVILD

Substance: GST-Rac (V12), dominant-active Rac (from UniProt P63000 1-192) (natural protein)
- equilibrium binding level relative to MIM/IMD-S: 10 to 15%
